In the supplement of paper PMC7877785:
± gives the uncertainty stated by the source.

Experiment: self-splicing fitness, log relative to wild type (ln ratio); higher = more splicing; Tetrahymena group I intron in knt gene, E. coli kanamycin selection, DiMSum; sequences stand for … in CUCUCU…GGAGGGAAAAGUUAUCAGGCAUGCACCUGGUAGCUAGUCUUUAAACCAAUAGAUUGCAUCGGUUUAAAAGGCAAGACCGUCAAAUUGCGGGAAAGGGGUCAACAGCCGUUCAGUACCAAGUCUCAGGGGAAACUUUGAGAUGGCCUUGCAAAGGGUAUGGUAAUAAGCUGACGGACAUGGUCCUAACCACGCAGCCAAGUCCUAAGUCAACAGAUCUUCUGUUGAUAUGGAUGCAGUUCACAGACUAAAUGUCGGUCGGGGAAGAUGUAUUCUUCUCAUAAGAUAUAGUCGGACCUCUCCUUAAUGGGAGCUAGCGGAUGAAGUGAUGCAACACUGGAGCCGCUGGGAACUAAUUUGUAUGCGAAAGUAUAUUGAUUAGUUUUGGAGUACUCGUGGUCG
Method in brief: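 Library with all eight P1ex-region intron nucleotides randomised, intron inside the knt kanamycin-resistance gene on pET-22b(+), in E. coli BL21(DE3). Cells grew overnight at 37°C or 30°C on LB agar with or without 25 μg/mL kanamycin (plus 100 μg/mL carbenicillin, 50 μM IPTG, 0.2% rhamnose), in six replicate transformations. Pooled colonies were amplicon-sequenced on Illumina HiSeq 2500. DiMSum fitness is the error-weighted combination of wild-type-normalised replicate fold changes, kanamycin versus none.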

Sequence	self-splicing fitness (ln) (30 °C)	self-splicing fitness (ln) (37 °C)
GUAAAGCAAUAUUACGGAGC	-2.47 ± 0.2	-1.71 ± 0.21
GUAAAGCAAUAUUACGGAUA	-2.72 ± 0.16	-0.67 ± 0.12
GUAAAGCAAUAUUACGGCGA	-0.00421 ± 0.11	-0.231 ± 0.17
GUAAAGCAAUAUUACGGGGU	-3.02 ± 0.19	-2.25 ± 0.21
GUAAAGCAAUAUUACGGUAC	-1.61 ± 0.12	-1.26 ± 0.18
GUAAAGCAAUAUUACGGUAG	-0.977 ± 0.054	-1.37 ± 0.099
GUAAAGCAAUAUUACGUCAC	-2.16 ± 0.096	-1.56 ± 0.12
GUAAAGCAAUAUUACGUCCA	-0.574 ± 0.088	0.0855 ± 0.12
GUAAAGCAAUAUUACGUGGG	-3.28 ± 0.18	-2.91 ± 0.14
GUAAAGCAAUAUUACGUGUG	-1.34 ± 0.063	-1 ± 0.088
GUACAGCAAUAUUACGAAGA	-2.52 ± 0.32	-1.83 ± 0.28
GUACAGCAAUAUUACGAAUG	-3.54 ± 0.25	-0.988 ± 0.18
GUACAGCAAUAUUACGACGC	-0.428 ± 0.092	-0.206 ± 0.1
GUACAGCAAUAUUACGAGAC	-2.09 ± 0.24	-2.5 ± 0.28
GUACAGCAAUAUUACGAGGG	-3.21 ± 0.17	-2.42 ± 0.2
GUACAGCAAUAUUACGAUCG	-1.67 ± 0.12	-0.932 ± 0.16
GUACAGCAAUAUUACGCACU	-0.597 ± 0.13	-1.16 ± 0.24
GUACAGCAAUAUUACGCAGG	-3.44 ± 0.23	-1.93 ± 0.19
GUACAGCAAUAUUACGCAUA	-2.65 ± 0.15	-1.56 ± 0.11
GUACAGCAAUAUUACGCCCU	-1.64 ± 0.34	-0.525 ± 0.32
GUACAGCAAUAUUACGCUCA	-1.07 ± 0.091	-0.188 ± 0.11
GUACAGCAAUAUUACGGCUA	0.707 ± 0.15	0.282 ± 0.12
GUACAGCAAUAUUACGGGGA	-3.21 ± 0.25	-2.33 ± 0.19
GUACAGCAAUAUUACGGGUA	-2.08 ± 0.13	-1.93 ± 0.15
GUACAGCAAUAUUACGGUGA	-1.75 ± 0.14	-0.943 ± 0.12
GUACAGCAAUAUUACGGUGG	-2.22 ± 0.1	-1.63 ± 0.11

Sequence	self-splicing fitness (ln) (30 °C)	self-splicing fitness (ln) (37 °C)
GUACAGCAAUAUUACGUACG	-4.18 ± 0.31	-2.2 ± 0.19
GUACAGCAAUAUUACGUAUG	-2.52 ± 0.086	-1.45 ± 0.091
GUACAGCAAUAUUACGUGAC	-2.8 ± 0.18	-0.577 ± 0.16
GUACAGCAAUAUUACGUGAU	-2.88 ± 0.07	-0.556 ± 0.07
GUACAGCAAUAUUACGUUAA	-2.28 ± 0.12	-1.98 ± 0.15
GUACAGCAAUAUUACGUUGU	-3.27 ± 0.15	-1.99 ± 0.15
GUAGAGCAAUAUUACGACCC	0.536 ± 0.15	0.745 ± 0.18
GUAGAGCAAUAUUACGAGAC	-3.02 ± 0.42	–
GUAGAGCAAUAUUACGAGAU	-4.13 ± 0.23	-0.661 ± 0.16
GUAGAGCAAUAUUACGAUCA	-1.28 ± 0.23	-0.907 ± 0.24
GUAGAGCAAUAUUACGAUUC	-0.192 ± 0.1	0.716 ± 0.14
GUAGAGCAAUAUUACGAUUG	-2.82 ± 0.16	-2.4 ± 0.2
GUAGAGCAAUAUUACGCCUA	-1.39 ± 0.26	-1.18 ± 0.24
GUAGAGCAAUAUUACGCUGA	-2.33 ± 0.11	-1.15 ± 0.14
GUAGAGCAAUAUUACGGAAU	-2.36 ± 0.084	-1.18 ± 0.096
GUAGAGCAAUAUUACGGCCA	-0.643 ± 0.098	-0.417 ± 0.17
GUAGAGCAAUAUUACGGCUU	-0.97 ± 0.075	-0.03 ± 0.12
GUAGAGCAAUAUUACGGGAG	-3.15 ± 0.47	-1.85 ± 0.38
GUAGAGCAAUAUUACGGGGA	-3.54 ± 0.25	-1.16 ± 0.29
GUAGAGCAAUAUUACGGGUC	-2.19 ± 0.12	-1.37 ± 0.12
GUAGAGCAAUAUUACGUAUC	-2.44 ± 0.12	-1.58 ± 0.13
GUAGAGCAAUAUUACGUCGA	-3.08 ± 0.17	-0.919 ± 0.2
GUAGAGCAAUAUUACGUGGU	-3.09 ± 0.28	-3.52 ± 0.3
GUAGAGCAAUAUUACGUGUA	-2.77 ± 0.2	-2.53 ± 0.28
GUAGAGCAAUAUUACGUUAC	-2.63 ± 0.18	-0.785 ± 0.14
GUAGAGCAAUAUUACGUUCC	-1.77 ± 0.14	-0.881 ± 0.18

Sequence	self-splicing fitness (ln) (30 °C)	self-splicing fitness (ln) (37 °C)
GUAGAGCAAUAUUACGUUUU	-2.47 ± 0.16	-1.36 ± 0.18
GUAUAGCAAUAUUACGACCG	-2.97 ± 0.35	-0.999 ± 0.26
GUAUAGCAAUAUUACGACGG	-4.18 ± 0.37	-2.33 ± 0.35
GUAUAGCAAUAUUACGAGCU	-2.42 ± 0.27	-1.61 ± 0.3
GUAUAGCAAUAUUACGAUAU	-2.87 ± 0.32	-0.832 ± 0.36
GUAUAGCAAUAUUACGAUCC	-0.716 ± 0.18	1.03 ± 0.22
GUAUAGCAAUAUUACGAUUA	-1.14 ± 0.16	-1.4 ± 0.15
GUAUAGCAAUAUUACGCAAG	-3.76 ± 0.4	-1.64 ± 0.25
GUAUAGCAAUAUUACGCAUA	-2.3 ± 0.28	-0.525 ± 0.27
GUAUAGCAAUAUUACGCCUC	-1.32 ± 0.21	-0.746 ± 0.27
GUAUAGCAAUAUUACGCGUA	-2.69 ± 0.29	-1.41 ± 0.22
GUAUAGCAAUAUUACGCUAG	-2.46 ± 0.43	-0.609 ± 0.3
GUAUAGCAAUAUUACGCUUG	-1.72 ± 0.16	-1.41 ± 0.26
GUAUAGCAAUAUUACGCUUU	-3.51 ± 0.24	-2.28 ± 0.17
GUAUAGCAAUAUUACGGAAU	-2.27 ± 0.23	-2.39 ± 0.21
GUAUAGCAAUAUUACGGAUC	-0.654 ± 0.14	-0.016 ± 0.17
GUAUAGCAAUAUUACGGCUA	-0.758 ± 0.13	-0.383 ± 0.11
GUAUAGCAAUAUUACGGGAC	-2.88 ± 0.34	-1.07 ± 0.2
GUAUAGCAAUAUUACGGGUC	-1.89 ± 0.2	-1.62 ± 0.39
GUAUAGCAAUAUUACGGUGG	-2.54 ± 0.1	-2.63 ± 0.17
GUAUAGCAAUAUUACGUAAA	-2.75 ± 0.31	-1.66 ± 0.31
GUAUAGCAAUAUUACGUAUU	-4.14 ± 0.37	-1.44 ± 0.2
GUAUAGCAAUAUUACGUCUU	-1.64 ± 0.14	0.0317 ± 0.13
GUAUAGCAAUAUUACGUGCA	-0.903 ± 0.19	-0.516 ± 0.18
